Measurements taken from publication PMC6662825, “The MTR4 helicase recruits nuclear adaptors of the human RNA exosome using distinct arch-interacting motifs” (Nature Communications, 2019).
Substitutions are numbered along the chain they refer to.

Assays:
Experiment in all cases: pull-down; GST-tagged MTR4 constructs as bait, Trx-NVL constructs as prey, glutathione sepharose; 10 μM GST-MTR4∆N with 20 μM Trx-NVL constructs; 50 mM Hepes pH 7.5, 150 mM NaCl, 5% glycerol, 0.05% NP40, 1 mM DTT, 30 min at 4 °C; SDS-PAGE, Coomassie
Details in all cases: both partners purified
[1] = molecular target: T1, GST-MTR4∆N R743E (human, UniProt P42285 75-1042, R743E)
T1 construct: also called R743E mutant; source: E. coli BL21 star (DE3), purified (Ni-NTA, heparin, SEC); not shown: 6xHis-GST, N-terminal, kept
T1 sequence (looked up): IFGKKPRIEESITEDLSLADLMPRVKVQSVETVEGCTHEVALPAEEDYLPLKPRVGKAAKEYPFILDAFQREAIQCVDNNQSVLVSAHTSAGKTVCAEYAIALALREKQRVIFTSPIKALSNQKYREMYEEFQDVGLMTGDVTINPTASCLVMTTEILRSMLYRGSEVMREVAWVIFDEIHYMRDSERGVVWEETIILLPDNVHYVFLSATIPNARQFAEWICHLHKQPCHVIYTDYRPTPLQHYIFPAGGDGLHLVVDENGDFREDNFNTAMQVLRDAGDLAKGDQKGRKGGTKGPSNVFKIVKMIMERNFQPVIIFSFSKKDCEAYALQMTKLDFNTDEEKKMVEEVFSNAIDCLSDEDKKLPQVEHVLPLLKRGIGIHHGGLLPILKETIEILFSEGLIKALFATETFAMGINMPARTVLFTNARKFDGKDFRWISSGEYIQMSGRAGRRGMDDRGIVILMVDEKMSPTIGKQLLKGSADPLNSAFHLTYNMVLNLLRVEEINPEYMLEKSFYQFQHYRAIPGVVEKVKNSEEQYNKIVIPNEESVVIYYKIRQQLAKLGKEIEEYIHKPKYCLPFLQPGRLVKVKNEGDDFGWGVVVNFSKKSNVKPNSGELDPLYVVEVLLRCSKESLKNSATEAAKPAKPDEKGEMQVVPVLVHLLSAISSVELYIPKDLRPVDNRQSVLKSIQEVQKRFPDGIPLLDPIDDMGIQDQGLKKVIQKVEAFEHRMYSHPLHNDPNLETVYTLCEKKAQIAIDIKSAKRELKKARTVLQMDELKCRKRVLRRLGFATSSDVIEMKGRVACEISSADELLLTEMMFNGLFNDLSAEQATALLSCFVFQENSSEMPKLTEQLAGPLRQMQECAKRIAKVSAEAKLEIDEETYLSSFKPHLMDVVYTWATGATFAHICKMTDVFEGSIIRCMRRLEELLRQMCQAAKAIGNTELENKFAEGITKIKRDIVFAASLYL

[2] = molecular target: T2, GST-MTR4∆N F677E (human, UniProt P42285 75-1042, F677E)
T2 construct: source: E. coli BL21 star (DE3), purified (Ni-NTA, heparin, SEC); not shown: 6xHis-GST, N-terminal, kept
T2 sequence (looked up): T1 sequence (looked up) with F603E, E669R

[3] = molecular target: T3, GST-MTR4-KOW (human, UniProt P42285 645-787)
T3 construct: human MTR4 KOW domain, residues 645–787; also called GST-tagged MTR4 KOW; source: E. coli BL21 star (DE3), purified (Ni-NTA, heparin, SEC); not shown: 6xHis-GST, N-terminal, kept
T3 sequence (looked up): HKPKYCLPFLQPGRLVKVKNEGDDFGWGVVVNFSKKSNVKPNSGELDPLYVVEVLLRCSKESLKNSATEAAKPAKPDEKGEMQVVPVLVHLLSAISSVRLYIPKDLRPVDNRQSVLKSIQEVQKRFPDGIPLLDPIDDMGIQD

binding result [1]: binds
binding result [2]: binds
binding result [3]: binds
B1: Trx-NVL^167–216 (domain or fragment, human, UniProt O15381 167-216, looked up)
chain: KDSEGGWFIDKTPSVKKDSFFLDLSCEKSNPKKPITEIQDSKDSSLLESD
notes: source: E. coli BL21 star (DE3), purified (Ni-NTA, SEC); not shown: 6xHis-Trx, N-terminal, kept
